Molecular target: the molecule itself
Test: SEC-MALS

B1: human Na+-dependent citrate transporter NaCT (SLC13A5), wildtype (natural protein)
chain: not shown
modifications: one glycan unit connected to Asn562 (N-glycosylation site)
- stoichiometry N: 2

From publication PMC7933130 (Nature, 2021)
